Test results reported in the DeepSol protein solubility set.

Assay: soluble on expression in E. coli; label from the status in PepcDB or PDB records

Sequence	soluble on expression in E. coli
QVPPSFFQRIYRYHREHGGRFGTVHDVGAGIGPYAGELRSQFPHVIVSDIVPKNVQLAEAHLGRDGFRYRAAPVEVADDLPPGSVDLAFATNVMHFADQHAAMQAIATQLRPGGTFACAGFGPARFDDPDIQDVWERISQQGGRILLGMAEHPPDTINVMSRSSKEYNVAPLEPQWFRPGALRIRLNMAQGGITGLLPPERQQEVTDPDFAGPRDVVVYETNEEWRFETDWEGFLQHFRSFPHAGADPAAFTGLLQELKDLLDEGRCLRGCWPATLILATR	not soluble
MAHHHHHHMGQGFSRAQMEEYKELVKDRFSEEAIEFLFMKFHKAAPEGVMTPVEFKRYIDSTGVYKNYRRTHLASWFPSYAKYTHSKGGNRAVRKTSAQILDREMYLHLFRAYDRDCDGVISFREFLLYHLAVMYSTEELFVVVFNAYDDDQDGYLSLDDIRNTITAATRYVGDCDVEDQEVQRVIDEEAQRLMFFLDVRKDGRIRRDDMRLITQKHPEVLEKMKNLM	soluble
SLKPSRPVETAYLQGQPGTPFPVIRGIGWSEDQGRRPDMEDGMVAISNLAGVANAWLLGIYDGHGGRQMVEMLLQKIHGNVLQHLRSRAIERWQRYRQRAMSRLQDIRRRLDELHFQQQLACRDVRVLMPPTQRLVELLRLGRICEWVLQCEEPSQEGRTETEKSSASKAPTPPSFLTICTEEDVHRALDEAFVQTDVEILQRLTHPSDHKAGCERDARRVESLGGWVFGERVNGMLAIGRAFGDWSLKLPPGKANPPYSPTSGAFDRLLNIFGTSPSHAAEQAAAERKEYVVSNAPDVRSVSLTPERPAQVPGGIRRNSPSSRASESQTAMSGQETGAGRVPGLLVLGCDGLFDVCSDQVVAHLALEFLRQLVAVHPDMSPCEAAKATARMLIEEAIGVRGSTDNVSVMVVLFHSFGFSGRDGVTPSPPTWYAAAAAKFAWLAEGVSRNVFGLPTASPIALPREPEDKTVD	not soluble
VGKQLAALAALVGACMLAAGCTNVVDGTAVAADKSGPLHQDPIPVSALEGLLLDLSQINAALGATSMKVWFNAKAMWDWSKSVADKNCLAIDGPAQEKVYAGTGWTAMRGQRLDDSIDDSKKRDHYAIQAVVGFPTAHDAEEFYSSSVQSWSSCSNRRFVEVTPGQDDAAWTVADVVNDNGMLSSSQVQEGGDGWTCQRALTARNNVTIDIVTCAYSQPDLVAIGIANQIAAKVAKQ	not soluble
MGSDKIHHHHHHMKKGLVMEGGAMRGLYTAGVTDVLMKYGIKFDGAVGVSAGVTFGCNYKSLQPGRVLRYNLRYGSRPQFKSWRSWIKTGDLYGADFCYYTLPEVLDPFDTAAFARNPMDFWCVATDVETAQPAYHKLTTGKGRDVAWIRASASIPVFARPVKIGGHAYWDGGVSDSIPVRFLLDKDYDKAVVILTQPAGYQKEPSRLQPVIDRVLKKYPAVVARLRQRHLEYNACLAYIAKEEAAGHLFVFRPSQGIDVSAMEKDPNRLKAVYQVGVRGCQAAIGGLEGIFTRLSTKNGD	not soluble
MGSSHHHHHHSSGLVPRGSHMASMTGGQQMGRGSMNIAVVTDSTAYIPKEMREQHQIHMIPLQVVFREETYREEIELDWKSFYEEVKKHNELPTTSQPPIGELVALYEELGKSYDAVISIHLSSGISGTFSSAAAADSMVDNIDVYPFDSEISCLAQGFYALKAAELIKNGASSPEDIIKELEEMKKTVRAYFMVDDLAHLQRGGRLSSAQAFIGSLLKVKPILHFDNKVIVPFEKIRTRKKAISRIYELLDEDASKGLPMRAAVIHANREEEAAKIIEELSAKYPHVEFYNSYFGAVIGTHLGEGALGICWCFK	soluble
MKAVMLLSGGIDSSTLLYYLLDGGYEVHALTFFYGQKHSKEIESAEKVAKAAKVRHLKVDISTIHDLISYGALTGEEEVPKAFYSEEVQRRTIVPNRNMILLSIAAGYAVKIGAKEVHYAAHLSDYSIYPDCRKEFVKALDTAVYLANIWTPVEVRAPFVDMTKADIVRLGLKLGVPYELTWSCYEGGDRPCLSCGTCLERTEAFLANGVKDPLLSDEEWKNAVKIYEEMRARNEGKSD	not soluble
MGSDKIHHHHHHMEYATLGNSGVEVSEVGFGAWVVGTDWWGDRTRDDAIDMVQHALDEDVTFFDTGDVYGHGDSEEIIGEALAEHRDEVTVSTKIGYDFYNNPQAGHGELPKKVTPEWVHTAVDRSLDRLGMDHVELLMLHNANVDEVDEDVLEALDELREEGKVDAIGWALGPSIGWLAEGDAAVANEFDALQTVFNLFEQTPGQHFIDTIREQNADTSVLARVPHSSGLLNEQVTPETELGKGDHRSHRPSEWYETGWEKVEEIRFLERDGARTMGQAAIQWLLYNDEVASVTPTFRTNADIDEWAGAPDTPPLSDEEYDRVQELYRDNFGIDRDDGMDALRSSVGGADLEETGMKSAGD	not soluble
MSLDPAHTPDPAHPHDQEAAHAEDPARAIGSARLLDVDPLLDDPGTRIVVCCGSGGVGKTTTAAALGLRAAERGRKVVVLTIDPARRLAQSMGIDSLDNIPRRVKGIDDSASGELHAMMLDMKRTFDEIVEAHADRERAAAILSNPFYQSLSAGFAGTQEYMAMEKLGQLRARDEWDLIIVDTPPSRSALDFLDAPKRLGSFLDGKLIRLLTAPAKLGGRAGMKFLNVGMSMMTGTLGKLLGGQLLKDVQTFVAAMDTTFGGFRTRADATYKLLQAPGTAFLVVAAPERDALREAAYFVERLAAEDMPLAGLVLNRVHGSGAAQLSAERALAAAENLDLAADPGSTENLEESRIVDQEGGKAGLRNSPDTYGSSESPADLTPADQTPASSEGSPATDGAVEQLTAGLLILHAERMQLLSREQRTRDRFAALHPEVAVAEVAALPGDVHDLTGLRDIGDRLAANRPELPTSPGGALEHHHHHH	soluble
MLPMQLPFQRARRLCLRAALAAIASAAHADDGTIVITGTITDTTCVIEDPAGPTHTKVVQLPKISKSALAKDGDEAGRTPFLITLKNCPSSLNNGVKAYFEPGPTTDYATGDLKAYSIAYNNNPATTQNAIIAASEAQGVQIRISNQNGTKIPMGVDAAAQNAQAFNPVTDTADNAKKKVTLRYLASYVKKSGNITTGQLTTYVGFSMIYP	not soluble
SNAMNHTADNCIFCKIIDGQILCSKVYEDEHVLAFLDISQVTKGHTLVIPKVHKQDIFALTPEIASHIFSVVPKIANAIKAEFNPVGFNLLNNNGEKAGQTVFHFHLHLIPRYGENDGFGAVWKSHQNEYTMENLQNIASTIANSVK	soluble
MSTETIEIFNNSDEWANQLKHALSKGENLALLHGLTPDILDRIYAYAFDYHEKGNITDAEIYYKFLCIYAFENHEYLKDFASVCQPKKKYQQAYDLYKLSYNYFPYDDYSVIYRMGQCQIGAKNIDNAMQCFYHIINNCEDDSVKSKAQAYIELLNDNSEDNGLEHHHHHH	not soluble
AIAALKDYALEKEKVKKFLQEFYQDDELGKKQFKYGNQLVRLAHREQVALYVDLDDVAEDDPELVDSICENARRYAKLFADAVQELLPQYKEREVVNKDVLDVYIEHRLMMEQRSRDPGMVRSPQNQYPAELMRRFELYFQGPSSSKPRVIREVRADSVGKLVTVRGIVTRVSEVKPKMVVATYTCDQCGAETYQPIQSPTFMPLIMCPSQECQTNRSGGRLYLQTRGSRFIKFQEMKMQEHSDQVPVGNIPRSITVLVEGENTRIAQPGDHVSVTGIFLPILRTGFRQVVQGLLSETYLEAHRIVKMNKSEDDESGAGELTREELRQIADVIFATVRELVSGGRSVRFSEAEQRCVSRGFTPAQFQAALDEYEELNVWQVNASRTRITFV	soluble
GSAQLLKSVFVKNVGWATQLTSGAVWVQFNDGSQLVMQAGVSSISYTSPDGQTTRYGENEKLPEYIKQKLQLLSSILLMFSNPTPVFQ	soluble
MSNEVEQKKNIKTINDLPGISQTVINKLIEAGYSSLETLAVASPQDLSVAAGIPLSTAQKIIKEARDALDIRFKTALEVKKERMNVKKISTGSQALDGLLAGGIETRTMTEFFGEFGSGKTQLCHQLSVNVQLPPEKGGLSGKAVYIDTEGTFRWERIENMAKALGLDIDNVMNNIYYIRAINTDHQIAIVDDLQELVSKDPSIKLIVVDSVTSHFRAEYPGRENLAVRQQKLNKHLHQLTRLAEVYDIAVIITNQVMARPDMFYGDPTVAVGGHTLYHVPGIRIQLKKSRGNRRIARVVDAPHLPEGEVVFALTEEGIRDAEE	soluble
